In one data set the target is T1, HsLARP6(70-300) R244A (Homo sapiens, UniProt Q9BRS8 70-300, R244A).
T1 sequence: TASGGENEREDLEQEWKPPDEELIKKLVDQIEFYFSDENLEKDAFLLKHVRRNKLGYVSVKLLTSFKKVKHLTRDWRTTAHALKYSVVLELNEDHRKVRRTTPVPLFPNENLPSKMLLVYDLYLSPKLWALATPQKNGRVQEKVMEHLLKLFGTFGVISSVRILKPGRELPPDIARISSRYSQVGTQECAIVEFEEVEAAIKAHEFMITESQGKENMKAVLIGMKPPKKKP
Put plainly: ITC; ITC: 20 mM Tris pH 7.25, 100 mM KCl, 5 mM MgCl2, 1 mM DTT, 298 K; protein titrated into RNA. The conditions noted are these: protein: recombinant; tags: N-terminal His6 (TEV-cleavable); stem-loop with internal bulge.

Another data set deals with T2, HsLARP6(70-300) I260A (Homo sapiens, UniProt Q9BRS8 70-300, I260A).
T2 sequence: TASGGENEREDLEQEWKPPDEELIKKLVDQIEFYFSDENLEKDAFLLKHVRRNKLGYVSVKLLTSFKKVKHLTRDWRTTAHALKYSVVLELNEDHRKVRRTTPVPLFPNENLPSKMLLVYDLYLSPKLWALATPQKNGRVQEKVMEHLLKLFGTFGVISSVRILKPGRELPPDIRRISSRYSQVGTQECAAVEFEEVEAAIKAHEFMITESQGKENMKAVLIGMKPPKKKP
The description is as above. Conditions: protein: recombinant; tags: N-terminal His6 (TEV-cleavable); stem-loop with internal bulge.

Another data set has as its target T3, HsLARP6(70-300) W198A (Homo sapiens, UniProt Q9BRS8 70-300, W198A).
T3 sequence: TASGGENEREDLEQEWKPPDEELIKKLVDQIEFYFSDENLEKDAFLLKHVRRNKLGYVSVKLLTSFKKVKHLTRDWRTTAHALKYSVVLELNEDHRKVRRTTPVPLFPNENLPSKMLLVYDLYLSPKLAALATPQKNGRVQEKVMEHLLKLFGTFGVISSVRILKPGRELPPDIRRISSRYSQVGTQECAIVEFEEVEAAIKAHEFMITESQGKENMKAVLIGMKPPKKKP
The data set is described as above. Conditions: protein: recombinant; tags: N-terminal His6 (TEV-cleavable); stem-loop with internal bulge.

Another data set has as its target T4, HsLARP6(70-300) Y103A (Homo sapiens, UniProt Q9BRS8 70-300, Y103A).
T4 sequence: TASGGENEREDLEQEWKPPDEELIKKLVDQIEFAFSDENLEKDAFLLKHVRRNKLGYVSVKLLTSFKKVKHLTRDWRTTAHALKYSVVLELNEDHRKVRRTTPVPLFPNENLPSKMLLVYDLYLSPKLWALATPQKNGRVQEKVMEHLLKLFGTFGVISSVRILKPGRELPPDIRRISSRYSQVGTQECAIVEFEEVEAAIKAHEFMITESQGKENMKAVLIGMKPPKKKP
Described as above. The conditions noted are these: protein: recombinant; tags: N-terminal His6 (TEV-cleavable); stem-loop with internal bulge.

A further data set addresses T5, HsLARP6(70-300) K196A (Homo sapiens, UniProt Q9BRS8 70-300, K196A).
T5 sequence: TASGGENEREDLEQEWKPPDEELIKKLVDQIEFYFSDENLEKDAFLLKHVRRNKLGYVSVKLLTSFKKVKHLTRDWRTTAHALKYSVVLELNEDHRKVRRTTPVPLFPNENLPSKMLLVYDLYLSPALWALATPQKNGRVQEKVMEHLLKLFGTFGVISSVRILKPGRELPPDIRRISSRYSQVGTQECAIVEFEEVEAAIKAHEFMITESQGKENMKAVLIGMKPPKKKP
The description is as above. The conditions noted are these: protein: recombinant; tags: N-terminal His6 (TEV-cleavable); stem-loop with internal bulge.

The next data set addresses T6, HsLARP6(70-300) L187A (Homo sapiens, UniProt Q9BRS8 70-300, L187A).
T6 sequence: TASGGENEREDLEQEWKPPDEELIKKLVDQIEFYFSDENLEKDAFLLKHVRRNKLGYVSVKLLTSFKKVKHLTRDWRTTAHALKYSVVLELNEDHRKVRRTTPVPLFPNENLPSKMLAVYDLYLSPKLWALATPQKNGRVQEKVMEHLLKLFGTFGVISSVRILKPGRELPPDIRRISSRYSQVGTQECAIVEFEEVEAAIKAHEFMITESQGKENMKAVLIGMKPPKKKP
The description is as above. The conditions noted are these: protein: recombinant; tags: N-terminal His6 (TEV-cleavable); stem-loop with internal bulge.

For a further data set, the target named is T7, HsLARP6(70-300) R237A (Homo sapiens, UniProt Q9BRS8 70-300, R237A).
T7 sequence: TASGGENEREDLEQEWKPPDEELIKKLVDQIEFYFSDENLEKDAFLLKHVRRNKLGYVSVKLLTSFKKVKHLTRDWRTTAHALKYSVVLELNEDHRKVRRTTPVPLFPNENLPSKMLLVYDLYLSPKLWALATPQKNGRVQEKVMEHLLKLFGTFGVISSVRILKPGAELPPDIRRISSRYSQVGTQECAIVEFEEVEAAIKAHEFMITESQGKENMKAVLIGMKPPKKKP
The data set is described as above. The conditions noted are these: protein: recombinant; tags: N-terminal His6 (TEV-cleavable); stem-loop with internal bulge.

Data set [1] concerns the target T8, HsLARP6 La module (70-300) (Homo sapiens, UniProt Q9BRS8 70-300).
T8 sequence: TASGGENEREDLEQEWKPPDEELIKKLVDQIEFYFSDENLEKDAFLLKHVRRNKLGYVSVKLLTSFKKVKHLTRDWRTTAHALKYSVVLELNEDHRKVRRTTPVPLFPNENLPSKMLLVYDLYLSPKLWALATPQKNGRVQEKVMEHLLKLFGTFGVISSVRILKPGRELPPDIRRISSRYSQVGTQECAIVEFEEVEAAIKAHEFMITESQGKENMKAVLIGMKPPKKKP
Put plainly: ITC; 200 mM KCl; ITC: 20 mM Tris pH 7.25, 100 mM KCl, 5 mM MgCl2, 1 mM DTT, 298 K; protein titrated into RNA. The conditions noted are these: protein: recombinant; tags: N-terminal His6, TEV-cleaved for initial ITC; stem-loop with internal bulge. Background: In ITC the heat of successive injections is recorded.

We go through 1 molecule from publication PMC4288179, “Synergic interplay of the La motif, RRM1 and the interdomain linker of LARP6 in the recognition of collagen mRNA expands the RNA binding repertoire of the La module”.

A word on the Kd: it is the free concentration of one partner at which half of the binding sites on the other are occupied at equilibrium, for simple one-to-one binding. As for CCACAAAGAGUCUACAUGUCUAGGGUCUAGACAUGUUCAGCUUUGUGG (structured_RNA) [48 nt RNA (collagen alpha1(I) 5' UTR SL)], the Kd with HsLARP6(70-300) R244A stood at 71 nM; in the data set with HsLARP6(70-300) I260A, 26 nM; in the data set with HsLARP6(70-300) W198A, 71 nM; with HsLARP6(70-300) K196A, 48 nM; with HsLARP6(70-300) L187A, 19 nM; with HsLARP6(70-300) R237A, 15 nM. For the same molecule, the Kd in data set [1] came out at 50 nM. In the data set with HsLARP6(70-300) Y103A, the binding result is on record as “no binding”.
